# B1: anti-CD33 antibody 6C7H12 (antibody, V domains shown)
# VH: EVQLVESGGGLVQPGGSLRLSCAGSGFTFSNYGMNWVRQAPGKGLEWVAEIRLKSNNYVTNYAASVKGRFTISRDDSKNSVYLQMNSLKTEDTGVYYCTRAGYYVPFAYWGQGTLVTVSS
# VL: QLVLTQSPSASASLGASVKLTCTLSSQHSTYTIEWYQQQPEKGPRYLMELKKEGSHSTGDGIPDRFSGSSSGAERYLTISSLQSEDEADYYCGVGDTIKEQFVYVFGGGTKLTVL
# notes: VH/VL only
# B2: anti-CD33 antibody 6C7H14 (antibody, V domains shown)
# VH: EVQLVESGGGLVQPGGSLRLSCAGSGFTFSNYAMNWVRQAPGKGLEWVAEIRLKSNNYVTNYAASVKGRFTISRDDSKNSVYLQMNSLKTEDTGVYYCTRAGYYVPFAYWGQGTLVTVSS
# VL: QLVLTQSPSASASLGASVKLTCTLSSQHSTYTIEWYQQQPEKGPRYLMELKKEGSHSTGDGIPDRFSGSSSGAERYLTISSLQSEDEADYYCGVGDTIKEQFVYVFGGGTKLTVL
# notes: VH/VL only
# B3: anti-CD33 antibody 6C7H15 (antibody, V domains shown)
# VH: EVQLVESGGGLVQPGGSLRLSCAGSGFTFSNYSMNWVRQAPGKGLEWVAEIRLKSNNYVTNYAASVKGRFTISRDDSKNSVYLQMNSLKTEDTGVYYCTRAGYYVPFAYWGQGTLVTVSS
# VL: QLVLTQSPSASASLGASVKLTCTLSSQHSTYTIEWYQQQPEKGPRYLMELKKEGSHSTGDGIPDRFSGSSSGAERYLTISSLQSEDEADYYCGVGDTIKEQFVYVFGGGTKLTVL
# notes: VH/VL only
# B4: anti-CD33 antibody 6C7H16 (antibody, V domains shown)
# VH: EVQLVESGGGLVQPGGSLRLSCAGSGFTFSNYLMNWVRQAPGKGLEWVAEIRLKSNNYVTNYAASVKGRFTISRDDSKNSVYLQMNSLKTEDTGVYYCTRAGYYVPFAYWGQGTLVTVSS
# VL: QLVLTQSPSASASLGASVKLTCTLSSQHSTYTIEWYQQQPEKGPRYLMELKKEGSHSTGDGIPDRFSGSSSGAERYLTISSLQSEDEADYYCGVGDTIKEQFVYVFGGGTKLTVL
# notes: VH/VL only
# B5: anti-CD33 antibody 6C7H17 (antibody, V domains shown)
# VH: EVQLVESGGGLVQPGGSLRLSCAGSGFTFSNYYMNWVRQAPGKGLEWVAEIRLKSNNYVTNYAASVKGRFTISRDDSKNSVYLQMNSLKTEDTGVYYCTRAGYYVPFAYWGQGTLVTVSS
# VL: QLVLTQSPSASASLGASVKLTCTLSSQHSTYTIEWYQQQPEKGPRYLMELKKEGSHSTGDGIPDRFSGSSSGAERYLTISSLQSEDEADYYCGVGDTIKEQFVYVFGGGTKLTVL
# notes: VH/VL only
# B6: anti-CD33 antibody 6C7H18 (antibody, V domains shown)
# VH: EVQLVESGGGLVQPGGSLRLSCAGSGFTFSNYHMNWVRQAPGKGLEWVAEIRLKSNNYVTNYAASVKGRFTISRDDSKNSVYLQMNSLKTEDTGVYYCTRAGYYVPFAYWGQGTLVTVSS
# VL: QLVLTQSPSASASLGASVKLTCTLSSQHSTYTIEWYQQQPEKGPRYLMELKKEGSHSTGDGIPDRFSGSSSGAERYLTISSLQSEDEADYYCGVGDTIKEQFVYVFGGGTKLTVL
# notes: VH/VL only
# B7: anti-CD33 antibody 6C7H20 (antibody, V domains shown)
# VH: EVQLVESGGGLVQPGGSLRLSCAGSGFTFSNYPMNWVRQAPGKGLEWVAEIRLKSNNYVTNYAASVKGRFTISRDDSKNSVYLQMNSLKTEDTGVYYCTRAGYYVPFAYWGQGTLVTVSS
# VL: QLVLTQSPSASASLGASVKLTCTLSSQHSTYTIEWYQQQPEKGPRYLMELKKEGSHSTGDGIPDRFSGSSSGAERYLTISSLQSEDEADYYCGVGDTIKEQFVYVFGGGTKLTVL
# notes: VH/VL only
# B8: anti-CD33 antibody 6C7H23 (antibody, V domains shown)
# VH: EVQLVESGGGLVQPGGSLRLSCAGSGFTFSNYVMNWVRQAPGKGLEWVAEIRLKSNNYVTNYAASVKGRFTISRDDSKNSVYLQMNSLKTEDTGVYYCTRAGYYVPFAYWGQGTLVTVSS
# VL: QLVLTQSPSASASLGASVKLTCTLSSQHSTYTIEWYQQQPEKGPRYLMELKKEGSHSTGDGIPDRFSGSSSGAERYLTISSLQSEDEADYYCGVGDTIKEQFVYVFGGGTKLTVL
# notes: VH/VL only
# B9: anti-CD33 antibody 6C7H24 (antibody, V domains shown)
# VH: EVQLVESGGGLVQPGGSLRLSCAGSGFTFSNYNMNWVRQAPGKGLEWVAEIRLKSNNYVTNYAASVKGRFTISRDDSKNSVYLQMNSLKTEDTGVYYCTRAGYYVPFAYWGQGTLVTVSS
# VL: QLVLTQSPSASASLGASVKLTCTLSSQHSTYTIEWYQQQPEKGPRYLMELKKEGSHSTGDGIPDRFSGSSSGAERYLTISSLQSEDEADYYCGVGDTIKEQFVYVFGGGTKLTVL
# notes: VH/VL only
# B10: anti-CD33 antibody 6C7H25 (antibody, V domains shown)
# VH: EVQLVESGGGLVQPGGSLRLSCAGSGFTFSNYEMNWVRQAPGKGLEWVAEIRLKSNNYVTNYAASVKGRFTISRDDSKNSVYLQMNSLKTEDTGVYYCTRAGYYVPFAYWGQGTLVTVSS
# VL: QLVLTQSPSASASLGASVKLTCTLSSQHSTYTIEWYQQQPEKGPRYLMELKKEGSHSTGDGIPDRFSGSSSGAERYLTISSLQSEDEADYYCGVGDTIKEQFVYVFGGGTKLTVL
# notes: VH/VL only
# B11: anti-CD33 antibody 6C7H26 (antibody, V domains shown)
# VH: EVQLVESGGGLVQPGGSLRLSCAGSGFTFSNYIMNWVRQAPGKGLEWVAEIRLKSNNYVTNYAASVKGRFTISRDDSKNSVYLQMNSLKTEDTGVYYCTRAGYYVPFAYWGQGTLVTVSS
# VL: QLVLTQSPSASASLGASVKLTCTLSSQHSTYTIEWYQQQPEKGPRYLMELKKEGSHSTGDGIPDRFSGSSSGAERYLTISSLQSEDEADYYCGVGDTIKEQFVYVFGGGTKLTVL
# notes: VH/VL only
# Tests used:
# [1] = target: human CD33 on primary human dendritic cells (human, UniProt P20138 18-364); assay: cell-based or functional assay
# [2] = target: T1, recombinant human CD33 protein (Sino Biologicals) (human, UniProt P20138 18-259); assay: BLI (ForteBio), antibody on anti-human Fc sensor, CD33 10 nM
# T1 construct: Bought protein; also called recombinant CD33
# Method: Affinity parameters of the antibody variants for human CD33 were measured by BioLayer Interferometry in a ForteBio assay according to standard techniques (Estep et al. (2013) MAbs 5(2): 270-8) and were compared to those of the parental antibody (antibody 6C7H8) and the parental humanized antibody (antibody 6C71H5). Briefly, the antibodies were captured on anti-human Fc Biosensors (Pall ForteBio). Recombinant human CD33 (10 nM, Sino Biologicals) was then bound to the captured anti-CD33 surface (200 s association time, 1200 s dissociation time). Local fitting was used to extract association and dissociation rate constants (kₐ and kd, respectively) for each antibody. Apparent affinity constants (KD) were calculated from the ratio kd/kₐ.
# T1 sequence (P20138 18-259 limits assumed): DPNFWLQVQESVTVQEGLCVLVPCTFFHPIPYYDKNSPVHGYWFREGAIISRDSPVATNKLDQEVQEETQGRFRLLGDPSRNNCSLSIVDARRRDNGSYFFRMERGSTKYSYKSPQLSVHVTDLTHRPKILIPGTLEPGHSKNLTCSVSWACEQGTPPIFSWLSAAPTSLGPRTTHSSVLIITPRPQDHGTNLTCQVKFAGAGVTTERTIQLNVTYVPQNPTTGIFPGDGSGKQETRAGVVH
# Sequence of human CD33 on primary human dendritic cells (P20138 18-364): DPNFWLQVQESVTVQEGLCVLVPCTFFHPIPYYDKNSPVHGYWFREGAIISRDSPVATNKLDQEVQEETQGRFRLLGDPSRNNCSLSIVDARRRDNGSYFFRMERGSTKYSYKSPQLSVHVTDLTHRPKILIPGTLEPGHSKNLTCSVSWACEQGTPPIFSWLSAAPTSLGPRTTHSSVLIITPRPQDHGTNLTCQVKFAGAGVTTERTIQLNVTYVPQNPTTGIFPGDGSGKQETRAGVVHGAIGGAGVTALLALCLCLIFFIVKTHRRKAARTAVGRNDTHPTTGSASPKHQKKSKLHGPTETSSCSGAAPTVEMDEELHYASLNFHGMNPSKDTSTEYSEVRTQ
Binder,Fold increase in potency compared to 6C7H5 [1] [fold],Maximal reduction in CD33 (% remaining) [1] [% remaining],"Receptor downregulation, (EC50) (pM) [1] [pM]",Kd [2] [pM],koff [2] [s⁻¹],kon [2] [M⁻¹ s⁻¹]
B1,0.3,27.5,160,926,0.000694,749000
B2,0.3,28.4,164,805,0.000798,991000
B3,0.2,27.7,252,1030,0.000825,801000
B4,0.1,28,305,782,0.00102,1.3e+06
B5,0.8,32.1,51.9,853,0.000523,613000
B6,0.3,29.2,148,609,0.00064,1.05e+06
B7,1,29,40.8,619,0.000457,739000
B8,0.4,26.2,120,558,0.000691,1.24e+06
B9,0.1,22.5,319,552,0.000757,1.37e+06
B10,1.6,30.3,27.6,246,0.00013,529000
B11,0.2,28.3,175,718,0.000944,1.32e+06

# Reference: patent publication US20250270319A1 (Alector, published 2025)
